In article PMC3212568:

Target: β2m lacking the N-terminal six residues of the mature protein (human)
Experiment: SEC; analytical size exclusion chromatography of 1 mg/ml protein in phosphate buffered saline pH 7.3 at 25°C; monomer and dimer peaks

percent dimeric: 4%
Substance: β2m lacking the N-terminal six residues of the mature protein (domain or fragment)
